In publication PMC8754640:

Legend:
[1] = biological target: His-PABP 4EA-Flag (Flag-PABP 4EA) (UniProt P11940 2-636, E178A;E180A;E182A;E189A); test: EMSA
[2] = biological target: His-PABP WT-Flag (Flag-PABP) (UniProt P11940 2-636); test: EMSA
Chain of His-PABP WT-Flag (Flag-PABP) (P11940 2-636): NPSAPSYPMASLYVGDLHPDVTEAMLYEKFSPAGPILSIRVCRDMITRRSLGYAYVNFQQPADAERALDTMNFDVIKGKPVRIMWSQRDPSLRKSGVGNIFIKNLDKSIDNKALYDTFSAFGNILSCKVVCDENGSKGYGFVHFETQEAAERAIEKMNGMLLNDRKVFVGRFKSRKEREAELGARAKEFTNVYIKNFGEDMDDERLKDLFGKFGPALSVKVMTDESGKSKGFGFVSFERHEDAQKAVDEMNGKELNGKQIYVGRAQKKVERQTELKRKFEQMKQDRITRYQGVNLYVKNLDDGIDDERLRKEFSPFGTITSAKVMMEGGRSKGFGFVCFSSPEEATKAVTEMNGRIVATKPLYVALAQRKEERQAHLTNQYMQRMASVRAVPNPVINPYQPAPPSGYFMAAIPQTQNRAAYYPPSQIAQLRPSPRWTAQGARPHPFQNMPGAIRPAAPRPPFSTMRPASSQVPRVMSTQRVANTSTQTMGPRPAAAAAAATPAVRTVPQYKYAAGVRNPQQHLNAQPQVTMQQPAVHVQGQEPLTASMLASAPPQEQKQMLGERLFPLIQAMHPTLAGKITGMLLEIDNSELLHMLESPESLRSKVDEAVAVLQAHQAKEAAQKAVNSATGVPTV

Chain of His-PABP 4EA-Flag (Flag-PABP 4EA) (P11940 2-636 E178A/E180A/E182A/E189A): as the sequence (P11940 2-636) above, with E177A, E179A, E181A, E188A counted along it

AAAAAAAAAAAAAAAAAAAAAAAAA (ssRNA) [poly(A)25]
Kd [1]: ~2.2 nM
Kd [2]: ~0.5 nM
